Legend:
[1] = target: Anti-human-MUC-1 mAb B27.29; test: flow cytometry; soluble MUC-1 mucin (10 µg) inhibits B27.29 staining of 3 day PHA activated T-cells
[2] = target: Anti-human-MUC-1 mAb B27.29; test: flow cytometry; soluble MUC-1 mucin (1 µg) inhibits B27.29 staining of 3 day PHA activated T-cells
[3] = target: Anti-human-MUC-1 mAb B27.29; test: flow cytometry; soluble MUC-1 mucin (50 µg) inhibits B27.29 staining of 3 day PHA activated T-cells
[4] = target: MUC-1 mucin expressed on the surface of PHA activated human T-cells (human) (UniProt P15941); test: cell-based or functional assay

Substance	% inhibition of binding [1] [%]	% inhibition of binding [2] [%]	% inhibition of binding [3] [%]	Effect on T-cell proliferation (% Inhibition) at 5 µg/ml [4] [%]	Effect on T-cell proliferation (% Inhibition) at 25 µg/ml [4] [%]
soluble MUC-1 mucin (from UniProt P15941 24-1097)	45	25	65	–	–
Anti-human-MUC-1 mAb B27.29 (antibody)	–	–	–	58	82
